Results on seven sequences are retold here after the DeepSol protein solubility set.

A short description of this data set: soluble on expression in E. coli; label from the status in PepcDB or PDB records.
Take “MNNLSVNGSSNGLFAKPTIGRSEYGRVKVALAPGKGFMDWLRLTTNKHLAKRVSGGVDHVELMKHNTKDDCWVHLFGIVYDVTKYLDFHPGGIPELLRGAGRDATPLFNQYHAWVNYESMLKACVVGPFIGDLTKLPSPLPPTTSDDKNKLGVPSSALFSTDPSENGYGARVETLSDNSGISFEHDDWTELTEHNTSINTRGEENTEEHARLRVLIHHFWKPAMEFEFEPTPALCHVEYTLKIMKNRVEIRFSREISGGKIDRSKCKIQRRPGVTYHTTEIIDRYRLNHDTLIFSLQLPEHTTYRIPIGHHVSIKIRKGSMGKFSWKFFLIFGYSVLYRPYTPISNPDPQKIDFMIKIYSNGICTPSLENLKIGGELEISDPIGERNFAEWTENAQELILLAAGSGITPMIDIMEKRIQKTENSNSKVYFLMFNKTENDLQTGKPEENPKSTWKMADFYSKYRGDERIVMKNVLSASECPVETGEYFNGRVSTDLLNSIISTSSTASRRAFICGPDGFILAAKTALESLNLHSDQIHIFQG”: the “soluble on expression in E. coli” value is recorded as “not soluble”. Take “MNNMSLSDIFERFDTSKDGKISWEEFRDAIHALSPSIPSEKLVEMFIQLDTNGDGQVDAAKFASCMDQTAQSSGGDVEKELKDAFKLYDINCDGKISANELHVVMTRLGEKCTVESCVGMVQAIDVDGDGYIRFVGV”: the “soluble on expression in E. coli” value is on record as “soluble”. Consider “MNNNEIYVSLDIGTSNVRIIIGEITDGSINIIGVGNAPSEGIKKGSIVDIDETVRSIRRAVEQAERMVGLSIRQVIVGVNGNHVQLQPCHGVVAVSSPDREIGDEDIARVIDAAQVVSIPPEREIIDVIPKQFIVDGLDEINDPRGMIGVRLEMEGTIITGSKTLLHNLLRCVERAGLEVADICLQALAAGSVAISKDEKSLGVCLIDIGGGSMTISCFEQGSLVDTSVIPVGGDHVTNDIAVGLRISTEEAIKIKHTHGHAYIDEASEEDRFEVKAIGSTEPEAFSQFELAHIIEPRMEEMFELINRELRRLGQHDFPGGFVLTGGSVMMPGVLELAKETLGRNVRVAIPDYIGVREPQYTTGVGLIQFAYKNVKIQGKEVAAAVAEAGVEQEQRPKKEKERSRTNEGPGVKSKVKNWFKVFLE”, for which the “soluble on expression in E. coli” value is on record as “not soluble”. Take “MNNRDQLFKAPPFENHSPLTWYQAASQLPNFIRDDAQAAAIEHLDRLWTELMMFKRKRNRFLGRSLRSPQVPKGLYFYGGVGRGKSFLMDAFFGCLPYRRKRRVHFHAFMAEIHRRLKALKSESNPLKSVAAEITKETRVLCFDEFHVSDIADAMILGRLLENLLNEGVVLVATSNYAPSELYPQGQNRSGFLPTIALIESSLTVLNVDGGEDYRLRTLRPAEIFFTPANEENEAKLAKLFKEMTGITDLNPGISTIHGREIPHKAESGRTIWFDFRALCFSPRSQSDYLYLAEHYEMVFISGLEQLSPQEKAEARRLTWLIDVLYDFRVKLCATGAVDVNHIYTEGDFAEEFTRTASRMVEMQSEVYLEQPHLTLSPKASGGLEHHHHHH”: the “soluble on expression in E. coli” value is recorded as “soluble”. With “MNNSREDQWLQHYEQQNIQEITPCFNAINIASSSGSSLGDGGAAAHEAAGRRSRASRRAIPTTLLNANPSNFRALVQKFTGRSAGGESNRRKGPVTLDFGSPTTISKEAIFPVSSDRSNNNLDHVVNQHVSNEQRHVTWSGTESMMSYQLGEETNSAVYSSGYDDQDLPREYSGNSSYDESLDHMDYYQDFHRETATLEEFMMRDLDL”, the “soluble on expression in E. coli” value is “soluble”. As for “MNPLLQDYARILLEWNQTHNLSGAKNLSELEPQITDALKPLEFIKDFKSCLDIGSGAGLPAIPLALEKPEVKFILLEPRIKRAAFLNYLKSVLPLKNIEIIKKRLEDYQNLLQVDLITSRAVASSSFLIEKSQRFLKDKGYFLFYKGEQLKDEIACKDTECFMHQKRVYFYKSKESLCLEHHHHHH”, the “soluble on expression in E. coli” value is “soluble”. “MNPNFLDFEQPIADLQAKIEELRLVGNDNALNISDEISRLQDKSKALTENIFGNLSSWQIAQLARHPKRPYTLDYIGYLFSDFEELHGDRHFADDPAIVGGVARLDGSPVMVIGHQKGREVREKVRRNFGMPRPEGYRKACRLMEMAERFKMPILTFIDTPGAYPGIDAEERGQSEAIAWNLRVMARLKTPIIATVIGEGGSGGALAIGVCDQLNMLQYSTYSVISPEGCASILWKTAEKAPEAAEAMGITAERLKGLGIVDKVIDEPLGGAHRDPASMAESIRGELLAQLKMLQGLEMGELLERRYDRLMSYGAP”: the “soluble on expression in E. coli” value was “not soluble”.
